These results are taken from paper PMC5467268, “Crystal structures of U6 snRNA-specific terminal uridylyltransferase” (Nature Communications, 2017).

For one data set, the target named is T1, TUT1_ΔN (form-I crystal) (Homo sapiens, UniProt Q9H6E5, DEL235-304/C372A/C415A/C501A/C504S/DEL651-750).
T1 construct: gene TUT1; palm, fingers and KA-1 domains; residues 1-140, 235-304 and 651-750 removed; cysteine mutations (order of the two mutation sets read as form-I, form-II); pET22b His tag, E. coli
T1 sequence (Q9H6E5 with tags, fused parts or gaps DEL235-304/C372A/C415A/C501A/C504S/DEL651-750): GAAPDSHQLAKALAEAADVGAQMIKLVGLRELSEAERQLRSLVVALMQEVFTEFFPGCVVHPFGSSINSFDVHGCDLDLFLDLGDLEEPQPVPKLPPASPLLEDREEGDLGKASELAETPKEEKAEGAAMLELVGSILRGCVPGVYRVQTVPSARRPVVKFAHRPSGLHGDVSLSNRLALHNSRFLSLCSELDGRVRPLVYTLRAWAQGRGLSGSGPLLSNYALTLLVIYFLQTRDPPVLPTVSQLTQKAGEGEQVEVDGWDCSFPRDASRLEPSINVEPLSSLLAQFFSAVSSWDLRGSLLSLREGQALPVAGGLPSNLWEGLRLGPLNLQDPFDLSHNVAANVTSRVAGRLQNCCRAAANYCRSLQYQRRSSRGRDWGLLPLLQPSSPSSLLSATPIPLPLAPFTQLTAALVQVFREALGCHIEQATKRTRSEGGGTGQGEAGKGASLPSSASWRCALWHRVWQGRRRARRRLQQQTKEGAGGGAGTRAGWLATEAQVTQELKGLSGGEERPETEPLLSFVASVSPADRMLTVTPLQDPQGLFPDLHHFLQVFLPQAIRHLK
Briefly: X-ray crystal structure (soak), […] Å. Format: binding. The note with it: Ba2+; 2 mM UTP, 4 mM BaCl2; incoming nucleotide site.

Data set [1] has as its target T2, TUT1_ΔN (form-II crystal) (Homo sapiens, UniProt Q9H6E5, DEL235-304/C372A/C399A/C415A/C501A/C504S/C574A/DEL651-750).
T2 construct: gene TUT1; palm, fingers and KA-1 domains; residues 1-140, 235-304 and 651-750 removed; cysteine mutations (order of the two mutation sets read as form-I, form-II); pET22b His tag, E. coli
T2 sequence (Q9H6E5 with tags, fused parts or gaps DEL235-304/C372A/C399A/C415A/C501A/C504S/C574A/DEL651-750): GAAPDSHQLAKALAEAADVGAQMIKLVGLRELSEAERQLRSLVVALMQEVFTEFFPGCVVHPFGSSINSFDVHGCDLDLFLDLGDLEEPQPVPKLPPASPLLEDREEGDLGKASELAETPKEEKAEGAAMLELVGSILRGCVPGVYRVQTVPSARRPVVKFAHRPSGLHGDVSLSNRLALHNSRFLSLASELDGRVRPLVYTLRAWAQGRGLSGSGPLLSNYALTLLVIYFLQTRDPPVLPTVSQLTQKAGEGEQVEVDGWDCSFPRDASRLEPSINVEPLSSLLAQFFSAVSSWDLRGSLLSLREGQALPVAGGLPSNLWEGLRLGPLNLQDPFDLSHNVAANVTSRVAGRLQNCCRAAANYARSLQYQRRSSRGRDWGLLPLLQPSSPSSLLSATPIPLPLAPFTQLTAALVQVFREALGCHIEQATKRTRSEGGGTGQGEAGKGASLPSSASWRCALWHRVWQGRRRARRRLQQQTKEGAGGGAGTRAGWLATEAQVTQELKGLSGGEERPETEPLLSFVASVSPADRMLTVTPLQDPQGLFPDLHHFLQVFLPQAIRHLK
Nature of the data set: X-ray crystal structure (soak), […] Å. Format: binding. The settings on record: Mg2+; 2 mM UTP, 4 mM MgCl2; incoming nucleotide site.

Data set [2] deals with T2, TUT1_ΔN (form-II crystal). Briefly: X-ray crystal structure (soak), […] Å. Format: binding. The note with it: Mg2+; 10 mM ATP, 20 mM MgCl2; incoming nucleotide site.
Substrate in data set [3]: Nc1ncnc2c1ncn2[C@@H]1O[C@H](COP(=O)(O)OP(=O)(O)OP(=O)(O)O)[C@@H](O)[C@H]1O
Nature of the data set: purified protein. Format: biochemical, Homo sapiens. The settings on record: co-substrate 1 μM U6 snRNA-u4, 10 mM MgCl2, 100 mM NaCl, pH 8.5, 37 °C.

Substrate in data set [4]: O=c1ccn([C@@H]2O[C@H](COP(=O)(O)OP(=O)(O)OP(=O)(O)O)[C@@H](O)[C@H]2O)c(=O)[nH]1
Briefly: purified protein. Format: biochemical, Homo sapiens. The settings on record: co-substrate 1 μM U6 snRNA-u4, 10 mM MgCl2, 100 mM NaCl, pH 8.5, 37 °C.

With `O=c1ccn([C@@H]2O[C@H](COP(=O)(O)OP(=O)(O)OP(=O)(O)O)[C@@H](O)[C@H]2O)c(=O)[nH]1` [UTP], the “X-ray crystal structure (soak), 2.95 Å” value at TUT1_ΔN (form-I crystal) is “The form-I TUT1_ΔN structure complexed with UTP (soaked in) was initially solved”. In addition, the “X-ray crystal structure (soak), 2.7 Å” value in data set [1] was “form-II TUT1_ΔN with UTP and ATP soaked in were also analysed”.

Turning to `Nc1ncnc2c1ncn2[C@@H]1O[C@H](COP(=O)(O)OP(=O)(O)OP(=O)(O)O)[C@@H](O)[C@H]1O` [ATP], the “X-ray crystal structure (soak), 2.8 Å” value in data set [2] was “form-II TUT1_ΔN with UTP and ATP soaked in were also analysed”.

B1: human TUT1 (full-length, wild-type) (Homo sapiens) (protein)
chain: MAAVDSDVESLPRGGFRCCLCHVTTANRPSLDAHLGGRKHRHLVELRAARKAQGLRSVFVSGFPRDVDSAQLSEYFLAFGPVASVVMDKDKGVFAIVEMGDVGAREAVLSQSQHSLGGHRLRVRPREQKEFQSPASKSPKGAAPDSHQLAKALAEAADVGAQMIKLVGLRELSEAERQLRSLVVALMQEVFTEFFPGCVVHPFGSSINSFDVHGCDLDLFLDLGDLEEPQPVPKAPESPSLDSALASPLDPQALACTPASPPDSQPPASPQDSEALDFETPSSSLAPQTPDSALASETLASPQSLPPASPLLEDREEGDLGKASELAETPKEEKAEGAAMLELVGSILRGCVPGVYRVQTVPSARRPVVKFCHRPSGLHGDVSLSNRLALHNSRFLSLCSELDGRVRPLVYTLRCWAQGRGLSGSGPLLSNYALTLLVIYFLQTRDPPVLPTVSQLTQKAGEGEQVEVDGWDCSFPRDASRLEPSINVEPLSSLLAQFFSCVSCWDLRGSLLSLREGQALPVAGGLPSNLWEGLRLGPLNLQDPFDLSHNVAANVTSRVAGRLQNCCRAAANYCRSLQYQRRSSRGRDWGLLPLLQPSSPSSLLSATPIPLPLAPFTQLTAALVQVFREALGCHIEQATKRTRSEGGGTGESSQGGTSKRLKVDGQKNCCEEGKEEQQGCAGDGGEDRVEEMVIEVGEMVQDWAMQSPGQPGDLPLTTGKHGAPGEEGQPSHAALAERGPKGHEAAQEWSQGEAGKGASLPSSASWRCALWHRVWQGRRRARRRLQQQTKEGAGGGAGTRAGWLATEAQVTQELKGLSGGEERPETEPLLSFVASVSPADRMLTVTPLQDPQGLFPDLHHFLQVFLPQAIRHLK
notes: full-length 1-874, synthetic codon-optimised gene, pET22b (His tag, no cleavage told), E. coli BL21(DE3), Ni-NTA/heparin/Superdex 200
For orientation: Km means the concentration of substrate that gives half-maximal velocity. Take B1: in the data set “purified protein [3]”, the Km is listed as 1,380 μM and the kcat is listed as 0.002 s^–1. In the data set “purified protein [4]”, the Km worked out at 59 µM and the kcat is given as 0.059 s^–1.
